The text below walks through data of patent US20260285972 (published 2026).

The chains are these.
T1: recombinant human GPRC5D-Flag-His (human, UniProt Q9NZD1)
T1 chain: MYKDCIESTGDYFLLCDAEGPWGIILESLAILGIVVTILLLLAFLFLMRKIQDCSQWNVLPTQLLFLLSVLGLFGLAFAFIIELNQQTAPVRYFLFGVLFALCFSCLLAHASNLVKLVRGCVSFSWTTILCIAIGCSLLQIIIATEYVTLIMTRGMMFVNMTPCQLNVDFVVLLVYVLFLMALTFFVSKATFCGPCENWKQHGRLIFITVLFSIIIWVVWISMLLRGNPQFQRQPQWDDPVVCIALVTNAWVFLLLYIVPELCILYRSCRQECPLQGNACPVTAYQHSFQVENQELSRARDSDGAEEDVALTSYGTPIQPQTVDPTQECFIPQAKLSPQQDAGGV

B1: 22Mono5UQY (antibody, V domains shown)
VH: QVQLQESGPGLVKPSETLSLTCTASGYPFTNYWMHWVRQPPGKGLEWIGEINPSNGRTNYNEKFKSRATLSLDKSKNQASLNLDSVSAADTAIYYCARGFAYWGKGSTVTVSS
VL: AIQLTQSPSSLSASVGDRVTITCSASSSVSFMHWYQQKPGKAPKRWIYDTTKLASGVPSRFSGSGSGTDYTFTISSLQPEDIATYYCQQWNSHPLTFGPGTKVDIK
modifications: Flag-His tag, ACRO GPD-H52D3
B2: 22Mono3L7F (antibody, V domains shown)
VH: EVTLKESGPVLVKPTETLTLTCTASGYPFTNYWMHWVRQPPGKALEWIGEINPSNGRTNYNEKFKSRATLSLDKSKSQAVLTMTNMDPVDTATYYCARGFAYWGQGTLVTVSS
VL: EIVLTQSPATLSLSPGERATLSCSASSSVSFMHWYQQKPGQAPRRWIYDTTKLASGIPARFSGSGSGTDYTLTISSLEPEDFAVYYCQQWNSHPLTFGQGTKLEIK
modifications: Flag-His tag, ACRO GPD-H52D3
B3: 22Mono4DN4 (antibody, V domains shown)
VH: ELVQSGAEVKKPGSSVKVSCKASGYPFTNYWMHWVRQAPGQGLEWIGEINPSNGRTNYNEKFKSRATLTLDKSTSTAYMELSSLRSEDTAVYYCARGFAYWGQGTLVTVSS
VL: B2 VL with I57V, L103V
modifications: Flag-His tag, ACRO GPD-H52D3
B4: 22Mono5JO4 (antibody, V domains shown)
VH: QVQLVQSGAEVKKPGSSVKVSCRASGYPFTNYWMHWVRQAPGQGLEWIGEINPSNGRTNYNEKFKSRATLTLDKLTSTAYMELSSLTSEDTALYYCARGFAYWGQGTLVTVSS
VL: B2 VL with A9G, A59D, S76R, K102T, L103V
modifications: Flag-His tag, ACRO GPD-H52D3

Substitutions are numbered along the chain they refer to.

The target of the assay is T1, recombinant human GPRC5D-Flag-His. Kind of assay: BLI. On the technique in general: Biolayer interferometry detects binding as a change in optical thickness at a sensor tip.
In general, Kd refers to the equilibrium constant for the complex coming apart. On to B1, for which the Kd was 5.67 nM.

For B2, the Kd stood at 25.6 nM. To B3 belongs 16.9 nM; to B4, 0.787 nM.
